No end group written: not given here.
Legend:
AIEKLVEGKSQIQ = target: T1, AIEKLVEGKSQIQ (not fully specified); experiment: ELISA, immobilized peptide AIEKLVEGKSQIQ
T1 construct: member of the group m41; the text speaks of glycine substitution, the sheet prints alanine
T1 peptide: AIEKLVEGKSQIQ
Description: (§1) FIG. 20 depicts the value detected by ELISA, i.e., OD₄₅₀ absorbance. […] This experiment is used to determine the precise amino acid epitopes that different monoclonal antibodies bind to, and the relative importance of each amino acid to the binding antibody.

QIEKLVEGKSAIQ = target: T2, QIEKLVEGKSAIQ (not fully specified); experiment: ELISA, immobilized peptide QIEKLVEGKSAIQ
T2 construct: alanine at this position
T2 peptide: QIEKLVEGKSAIQ
Description: as §1

QIEKLVAGKSQIQ = target: T3, QIEKLVAGKSQIQ (not fully specified); experiment: ELISA, immobilized peptide QIEKLVAGKSQIQ
T3 construct: member of the group m41; the text speaks of glycine substitution, the sheet prints alanine
T3 peptide: QIEKLVAGKSQIQ
Description: as §1
To further precisely define the exact epitopes (specific to the level of single amino acid) to which blocking antibodies MM02, MM05, MM07, MM08, MM13, MM14 bind, corresponding ELISA analysis method was established. […] Anti-mouse or anti-rabbit secondary antibodies were then used to detect the corresponding bound antibodies.

QIEKLVEGKSQIA = target: T4, QIEKLVEGKSQIA (not fully specified); experiment: ELISA, immobilized peptide QIEKLVEGKSQIA
T4 construct: alanine at this position
T4 peptide: QIEKLVEGKSQIA
Description: as §1

[1] = target: T5, human SEMG2 full-length protein (human, UniProt Q02383 24-582, limits assumed); experiment: ELISA, immobilized antigen SEMG2 (1-582)
T5 construct: also called SEMG2 protein; semenogelin 2
T5 sequence: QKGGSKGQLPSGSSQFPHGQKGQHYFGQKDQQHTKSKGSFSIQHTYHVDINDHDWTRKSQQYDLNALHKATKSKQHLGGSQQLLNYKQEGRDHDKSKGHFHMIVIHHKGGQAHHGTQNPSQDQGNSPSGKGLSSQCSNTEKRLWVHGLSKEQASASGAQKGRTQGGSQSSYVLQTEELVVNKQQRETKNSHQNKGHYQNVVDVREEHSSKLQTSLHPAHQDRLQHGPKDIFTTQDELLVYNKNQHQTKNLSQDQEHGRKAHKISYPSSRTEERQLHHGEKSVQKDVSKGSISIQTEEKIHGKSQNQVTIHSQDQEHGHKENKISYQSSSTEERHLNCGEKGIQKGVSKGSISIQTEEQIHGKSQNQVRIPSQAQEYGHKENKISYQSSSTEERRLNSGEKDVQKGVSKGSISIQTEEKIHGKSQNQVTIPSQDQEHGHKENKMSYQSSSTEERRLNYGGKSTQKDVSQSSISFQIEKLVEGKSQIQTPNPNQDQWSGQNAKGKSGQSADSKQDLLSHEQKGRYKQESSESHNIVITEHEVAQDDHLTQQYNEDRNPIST
Description: (§2) To clearly distinguish the binding epitopes of blocking antibodies (i.e., antibodies that can inhibit the binding between SEMG2 and CD27) and non-blocking antibodies, a corresponding ELISA analysis method was established. […] Anti-mouse or anti-rabbit secondary antibodies were then used to detect the corresponding bound antibodies.

[2] = target: T5, human SEMG2 full-length protein; experiment: ELISA, plate coated with SEMG2 protein, anti-mouse secondary antibody; the EC50 table prints no unit, the axis is log (antibody concentration, nM)
QIEKAVEGKSQIQ = target: T6, QIEKAVEGKSQIQ (not fully specified); experiment: ELISA, immobilized peptide QIEKAVEGKSQIQ
T6 construct: alanine at this position
T6 peptide: QIEKAVEGKSQIQ
Description: as §1

[3] = target: T7, SEMG2(497-509) polypeptide QIEKLVEGKSQIQ (human); experiment: ELISA, immobilized antigen SEMG2 (497-509)
T7 peptide: QIEKLVEGKSQIQ
Description: as §2

[4] = target: T5, human SEMG2 full-length protein; experiment: biolayer interferometry (ForteBio Blitz or Gator)
Protocol: The equilibrium dissociation constant (KD) of the antibody of the present invention binding to human SEMG2 was determined by biolayer interferometry (ForteBio Bltz or Gator instrument). […] 100 μl of SD buffer, antibody and SEMG2 were added to a 96-well black polystyrene half area microplate, respectively. Select the sensor location based on the sample location layout. KD values were analyzed using molecular interaction analysis software. In the experiments of the assays, the affinity constants of murine monoclonal antibodies and human antibodies H88-67, H88-93 and H88-96 are shown in Table 8, and the affinity and dissociation curves of SEMG2 and corresponding proteins are shown in FIG. 25.

SEMG2(442-453) fragment = target: T8, SEMG2(442-453) fragment (human); experiment: ELISA, immobilized antigen SEMG2 (442-453)
T8 peptide: IHGKSQNQVTIP
Description: as §2

QIAKLVEGKSQIQ = target: T9, QIAKLVEGKSQIQ (not fully specified); experiment: ELISA, immobilized peptide QIAKLVEGKSQIQ
T9 construct: member of the group m41; the text speaks of glycine substitution, the sheet prints alanine
T9 peptide: QIAKLVEGKSQIQ

SEMG2(354-403) fragment = target: T10, SEMG2(354-403) fragment (human); experiment: ELISA, immobilized antigen SEMG2 (354-403)
T10 peptide: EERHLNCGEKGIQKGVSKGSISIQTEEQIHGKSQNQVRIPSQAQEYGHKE
Description: as §2

QIEKLVEAKSQIQ = target: T11, QIEKLVEAKSQIQ; experiment: ELISA, immobilized peptide QIEKLVEAKSQIQ
T11 construct: member of the group m41; position 504 is glycine in SEMG2 and the sheet prints alanine there
T11 peptide: QIEKLVEAKSQIQ
Description: as §1

QIEALVEGKSQIQ = target: T12, QIEALVEGKSQIQ (not fully specified); experiment: ELISA, immobilized peptide QIEALVEGKSQIQ
T12 construct: member of the group m41; the text speaks of glycine substitution, the sheet prints alanine
T12 peptide: QIEALVEGKSQIQ
Description: as §1

QAEKLVEGKSQIQ = target: T13, QAEKLVEGKSQIQ (not fully specified); experiment: ELISA, immobilized peptide QAEKLVEGKSQIQ
T13 construct: member of the group m41; the text speaks of glycine substitution, the sheet prints alanine
T13 peptide: QAEKLVEGKSQIQ
Description: as §1

QIEKLVEGKAQIQ = target: T14, QIEKLVEGKAQIQ (not fully specified); experiment: ELISA, immobilized peptide QIEKLVEGKAQIQ
T14 construct: alanine at this position
T14 peptide: QIEKLVEGKAQIQ
Description: as §1

QIEKLVEGASQIQ = target: T15, QIEKLVEGASQIQ (not fully specified); experiment: ELISA, immobilized peptide QIEKLVEGASQIQ
T15 construct: member of the group m41; the text speaks of glycine substitution, the sheet prints alanine
T15 peptide: QIEKLVEGASQIQ
Description: as §1

[5] = target: T7, SEMG2(497-509) polypeptide QIEKLVEGKSQIQ; experiment: ELISA, immobilized peptide QIEKLVEGKSQIQ
Description: as §1

SEMG2(563-574) fragment = target: T16, SEMG2(563-574) fragment (human); experiment: ELISA, immobilized antigen SEMG2 (563-574)
T16 peptide: VAQDDHLTQQYN
Description: as §2

[6] = target: T17, BSA-conjugated human SEMG2 (497-509) polypeptide (human, also: coupled to BSA, site not given here); experiment: ELISA on BSA-SEMG2 (497-509), antibody titrated
T17 peptide: QIEKLVEGKSQIQ

QIEKLAEGKSQIQ = target: T18, QIEKLAEGKSQIQ (not fully specified); experiment: ELISA, immobilized peptide QIEKLAEGKSQIQ
T18 construct: member of the group m41; the text speaks of glycine substitution, the sheet prints alanine
T18 peptide: QIEKLAEGKSQIQ
Description: as §1

QIEKLVEGKSQAQ = target: T19, QIEKLVEGKSQAQ (not fully specified); experiment: ELISA, immobilized peptide QIEKLVEGKSQAQ
T19 construct: member of the group m41; the text speaks of glycine substitution, the sheet prints alanine
T19 peptide: QIEKLVEGKSQAQ
Description: as §1

[7] = target: T7, SEMG2(497-509) polypeptide QIEKLVEGKSQIQ; experiment: phage display screening on BSA- and KLH-coupled peptide, ELISA
Description: Specifically, the preparation of polypeptide antigens and the screening of human natural antibody library were firstly performed. […] ELISA was used to select clones that bind to antigenic epitopes for preliminary screening. Different unique sequences were obtained after sequencing single colonies, sorted according to affinity sorting, and full-length antibodies were constructed from antigen-binding fragments (Fab) with relatively high affinity. The binding ability and blocking function tests were performed after purification, that is, the effect of the antibody on binding between SEMG2 and CD27 was determined by the ELISA experiment.

[8] = target: T5, human SEMG2 full-length protein; experiment: ELISA on SEMG2; the EC50 table prints no unit, the axis is log (antibody concentration, nM)
[9] = target: T17, BSA-conjugated human SEMG2 (497-509) …; experiment: ELISA, OD450 against antibody concentration (FIG. 21)

B1: MM02 (antibody, IgG2b, V domains shown)
VH: QIQLVQSGPEVKKPGETVRISCKASGYTLTTAGIQWVQKMPGKGLKWIGWINTHSGVPEYAEDFKGRFAFFLETSASTAYLQISNLKNEDTATYFCARLGLLGYWGQGTTLTVSS
VL: DILLTQSPAILSVSPGERVSFSCRASQSIGTTIHWYQQRTNGSPRLLIKYASESISGIPSRFSGSGSGTDFTLSINSVESEDIADYYCQQSNSWPWTFGGGTKLEIKR
- OD450 absorbance (AIEKLVEGKSQIQ): 0.45
- OD450 absorbance (QIEKLVEGKSAIQ): 1.26
- OD450 absorbance (QIEKLVAGKSQIQ): 0.48
- OD450 absorbance (QIEKLVEGKSQIA): 1.15
- A450 absorbance [1]: 1.2
- EC50 [2]: 0.176 nM
- OD450 absorbance (QIEKAVEGKSQIQ): 0.051
- A450 absorbance [3]: 1.18
- Kd [4]: 1.33 nM
- A450 absorbance (SEMG2(442-453) fragment): 0.001
- binding result (SEMG2(442-453) fragment): no binding
- OD450 absorbance (QIAKLVEGKSQIQ): 0.788
- A450 absorbance (SEMG2(354-403) fragment): 0.004
- binding result (SEMG2(354-403) fragment): no binding
- OD450 absorbance (QIEKLVEAKSQIQ): 0.766
- OD450 absorbance (QIEALVEGKSQIQ): 0.47
- OD450 absorbance (QAEKLVEGKSQIQ): 0.541
- OD450 absorbance (QIEKLVEGKAQIQ): 0.173
- OD450 absorbance (QIEKLVEGASQIQ): 0.949
- OD450 absorbance [5]: 1.26
- A450 absorbance (SEMG2(563-574) fragment): 0.005
- binding result (SEMG2(563-574) fragment): no binding
- EC50 (read off the curve) [6]: ~4 ng/mL
- OD450 absorbance (QIEKLAEGKSQIQ): 0.928
- OD450 absorbance (QIEKLVEGKSQAQ): 0.894

B2: H88-93 (antibody, V domains shown)
VH: QITLKESGPTLVKPTQTLTLTCNFSGFSLTTSGVGVAWIRQPPGKALEWLALIYWDDDQRYSPSLKSRLSVTKHTSKDQVVLTMTNVGPVDTATYYCAHLSYGPGWGYYMDVWGNGTMVTVSS
VL: EIVLTQSPGTLSLSPGERASLSCRASQSVRNNYLAWYQQKPGQAPRLLIFGASNRATGIPDTFSGSGSGTDFTLTISRLEPEDFAVYYCQQYGHSPITFGQGTRLEIK
notes: Fully human full-length antibody built from a phage Fab
- binding result [7]: binds
- Kd [4]: 4.6 nM
- EC50 [8]: 0.0636 nM
- binding result [9]: binds

From patent publication US20230080534A1 (SHANGHAI BIOTROY BIOTECHNIQUE, published 2023)
